Results published in PMC10183829 (2023).

B1: mCh-HsC53 [human] / GST-ATG8A [Arabidopsis thaliana] (parent complex)
chain 1: MEDHQHVPIDIQTSKLLDWLVDRRHCSLKWQSLVLTIREKINAAIQDMPESEEIAQLLSGSYIHYFHCLRILDLLKGTEASTKNIFGRYSSQRMKDWQEIIALYEKDNTYLVELSSLLVRNVNYEIPSLKKQIAKCQQLQQEYSRKEEECQAGAAEMREQFYHSCKQYGITGENVRGELLALVKDLPSQLAEIGAAAQQSLGEAIDVYQASVGFVCESPTEQVLPMLRFVQKRGNSTVYEWRTGTEPSVVERPHLEELPEQVAEDAIDWGDFGVEAVSEGTDSGISAEAAGIDWGIFPESDSKDPGGDGIDWGDDAVALQITVLEAGTQAPEGVARGPDALTLLEYTETRNQFLDELMELEIFLAQRAVELSEEADVLSVSQFQLAPAILQGQTKEKMVTMVSVLEDLIGKLTSLQLQHLFMILASPRYVDRVTEFLQQKLKQSQLLALKKELMVQKQQEALEEQAALEPKLDLLLEKTKELQKLIEADISKRYSGRPVNLMGTSL
chain 2: MAKSSFKISNPLEARMSESSRIREKYPDRIPVIVEKAGQSDVPDIDKKKYLVPADLTVGQFVYVVRKRIKLGAEKAIFVFVKNTLPPTAALMSAIYEEHKDEDGFLYMTYSGENTFG

Variants of: B1
Experiment: microscopy-based protein-protein interaction assay (on-bead binding, confocal); 1 μM C53 protein; glutathione-sepharose beads with GST-ATG8A; read off a plot

Row | Variant | response [normalized fluorescence]
1 | chain 1 W269A, chain 1 W294A, chain 1 W312A | ~0.25
